According to paper PMC8989681, “Functional and structural deficiencies of Gemin5 variants associated with neurological disorders” (Life Science Alliance, 2022):

Experiments:
G5_(845-1508)-D1019E-TAP [1] = biological target: T1, G5_(845-1508)-D1019E-TAP (human, UniProt Q8TEQ6 845-1508, D1019E); assay: co-IP; G5_(845-1508)-TAP baits expressed 24 h in HEK293; complexes purified by TAP (IgG Sepharose, TEV protease, calmodulin); endogenous Gemin5 and bait detected by WB with anti-Gemin5; Gemin5 intensity normalised to the purified bait; settings: partners not purified
T1 construct: Vector pcDNA3-CTAP; source: HEK293, transfected, in soluble cell extract; purified by TAP
T1 sequence (looked up): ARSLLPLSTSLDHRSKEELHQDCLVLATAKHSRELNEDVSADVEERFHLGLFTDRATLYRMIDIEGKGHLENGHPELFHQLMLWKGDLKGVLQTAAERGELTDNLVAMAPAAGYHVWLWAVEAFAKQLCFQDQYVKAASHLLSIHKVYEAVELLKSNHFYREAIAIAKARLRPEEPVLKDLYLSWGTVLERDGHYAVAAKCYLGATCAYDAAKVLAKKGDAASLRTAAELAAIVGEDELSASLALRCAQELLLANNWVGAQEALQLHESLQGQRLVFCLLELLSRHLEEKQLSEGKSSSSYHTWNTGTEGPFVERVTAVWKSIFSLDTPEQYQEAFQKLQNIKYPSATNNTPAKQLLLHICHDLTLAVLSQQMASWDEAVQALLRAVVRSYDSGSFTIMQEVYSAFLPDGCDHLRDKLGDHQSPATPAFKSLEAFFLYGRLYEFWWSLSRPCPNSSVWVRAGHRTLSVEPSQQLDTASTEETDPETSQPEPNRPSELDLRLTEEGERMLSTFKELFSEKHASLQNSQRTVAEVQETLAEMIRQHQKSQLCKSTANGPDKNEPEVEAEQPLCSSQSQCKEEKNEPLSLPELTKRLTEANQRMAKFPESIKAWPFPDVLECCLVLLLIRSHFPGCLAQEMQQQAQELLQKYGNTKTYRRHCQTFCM

G5_(845-1508)-R1016C-TAP [2] = biological target: T2, G5_(845-1508)-R1016C-TAP (human, UniProt Q8TEQ6 845-1508, R1016C); assay: as above; settings: partners not purified
T2 construct: Vector pcDNA3-CTAP; source: HEK293, transfected, in soluble cell extract; purified by TAP
T2 sequence (looked up): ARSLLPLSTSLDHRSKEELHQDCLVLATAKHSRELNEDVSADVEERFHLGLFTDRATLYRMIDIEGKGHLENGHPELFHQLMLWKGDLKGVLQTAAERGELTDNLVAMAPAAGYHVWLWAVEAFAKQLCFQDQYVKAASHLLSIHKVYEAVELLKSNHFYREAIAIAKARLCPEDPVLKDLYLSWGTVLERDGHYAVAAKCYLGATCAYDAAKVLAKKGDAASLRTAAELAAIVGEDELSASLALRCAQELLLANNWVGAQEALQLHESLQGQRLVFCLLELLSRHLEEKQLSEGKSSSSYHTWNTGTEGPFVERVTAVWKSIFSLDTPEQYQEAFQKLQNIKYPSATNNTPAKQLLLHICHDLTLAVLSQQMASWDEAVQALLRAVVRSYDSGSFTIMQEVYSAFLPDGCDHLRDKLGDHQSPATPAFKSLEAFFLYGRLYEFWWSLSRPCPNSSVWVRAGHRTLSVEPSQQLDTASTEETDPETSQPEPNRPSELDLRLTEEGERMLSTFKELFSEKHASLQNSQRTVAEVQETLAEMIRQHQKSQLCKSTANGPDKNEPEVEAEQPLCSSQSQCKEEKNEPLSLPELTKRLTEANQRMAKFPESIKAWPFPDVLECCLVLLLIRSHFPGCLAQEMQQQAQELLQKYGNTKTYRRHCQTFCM

[3] = biological target: T3, G5_(845-1508)-A951E-TAP (human), Q8TEQ6; assay: as above; settings: remark: other sources report otherwise
T3 chain: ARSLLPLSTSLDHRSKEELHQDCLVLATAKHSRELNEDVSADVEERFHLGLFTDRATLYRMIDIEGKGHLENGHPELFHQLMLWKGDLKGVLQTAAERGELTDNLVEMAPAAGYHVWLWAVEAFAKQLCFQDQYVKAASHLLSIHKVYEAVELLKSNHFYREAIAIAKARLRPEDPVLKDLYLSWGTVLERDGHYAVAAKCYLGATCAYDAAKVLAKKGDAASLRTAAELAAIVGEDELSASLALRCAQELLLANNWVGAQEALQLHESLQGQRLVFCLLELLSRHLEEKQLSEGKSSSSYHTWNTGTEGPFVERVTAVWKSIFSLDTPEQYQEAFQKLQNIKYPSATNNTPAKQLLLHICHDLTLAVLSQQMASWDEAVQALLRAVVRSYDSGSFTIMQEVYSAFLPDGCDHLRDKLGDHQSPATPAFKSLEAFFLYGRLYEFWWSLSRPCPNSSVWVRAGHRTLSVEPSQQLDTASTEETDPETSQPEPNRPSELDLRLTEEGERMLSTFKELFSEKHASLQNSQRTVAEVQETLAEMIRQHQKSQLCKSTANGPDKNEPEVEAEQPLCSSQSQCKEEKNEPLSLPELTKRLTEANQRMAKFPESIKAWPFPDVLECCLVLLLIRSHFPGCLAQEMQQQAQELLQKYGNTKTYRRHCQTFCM

G5_(845-1508)-D1019E-TAP [4] = biological target: T1, G5_(845-1508)-D1019E-TAP; assay: affinity purification with mass spectrometry; G5_(845-1508)-TAP baits expressed in HEK293; TAP purification, in-gel trypsin digestion, LC-MS/MS, PEAKS; two biological replicates; at least two distinct peptides; settings: partners not purified
G5_(845-1508)-L1367P-TAP = biological target: T4, G5_(845-1508)-L1367P-TAP (human, UniProt Q8TEQ6 845-1508, L1367P); assay: as above; settings: partners not purified
T4 construct: Vector pcDNA3-CTAP; Expressed at lower levels than the WT; also called RBS1 variant L1367P; source: HEK293, transfected, in soluble cell extract; purified by TAP
T4 sequence (looked up): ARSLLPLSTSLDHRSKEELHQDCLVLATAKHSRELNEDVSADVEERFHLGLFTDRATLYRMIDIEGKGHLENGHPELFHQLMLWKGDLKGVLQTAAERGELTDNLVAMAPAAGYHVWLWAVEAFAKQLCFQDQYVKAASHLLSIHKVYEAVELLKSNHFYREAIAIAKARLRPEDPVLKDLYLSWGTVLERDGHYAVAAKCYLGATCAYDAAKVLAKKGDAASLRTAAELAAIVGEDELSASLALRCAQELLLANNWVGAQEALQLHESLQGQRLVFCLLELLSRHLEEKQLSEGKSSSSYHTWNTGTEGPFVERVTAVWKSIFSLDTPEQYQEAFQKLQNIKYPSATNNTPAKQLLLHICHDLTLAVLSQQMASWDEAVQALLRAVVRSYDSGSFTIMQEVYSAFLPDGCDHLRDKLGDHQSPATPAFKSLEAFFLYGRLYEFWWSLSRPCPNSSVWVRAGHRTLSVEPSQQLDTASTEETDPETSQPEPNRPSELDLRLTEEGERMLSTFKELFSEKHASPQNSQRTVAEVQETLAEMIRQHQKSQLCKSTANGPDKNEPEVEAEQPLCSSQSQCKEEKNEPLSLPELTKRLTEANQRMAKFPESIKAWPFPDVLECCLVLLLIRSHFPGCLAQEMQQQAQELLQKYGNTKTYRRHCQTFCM

G5_(845-1508)-R1016C-TAP [5] = biological target: T2, G5_(845-1508)-R1016C-TAP; assay: as above; settings: partners not purified

- co-IP intensity relative to the WT protein (G5_(845-1508)-D1019E-TAP [1]): 62%
- co-IP intensity relative to the WT protein (G5_(845-1508)-R1016C-TAP [2]): 58%
- fold by which the recruitment by WT exceeds that by this mutant [3]: 10 fold
- ratio of peptide reads of region 1-844 to region 845-1508, relative to G5_(845-1508)-WT (G5_(845-1508)-D1019E-TAP [4]): 0.56
- ratio of peptide reads of region 1-844 to region 845-1508, relative to G5_(845-1508)-WT (G5_(845-1508)-L1367P-TAP): 0.9
- ratio of peptide reads of region 1-844 to region 845-1508, relative to G5_(845-1508)-WT (G5_(845-1508)-R1016C-TAP [5]): 0.77
B1: endogenous Gemin5 protein (natural protein, human (endogenous in HEK293), UniProt Q8TEQ6 1-1508, looked up)
chain: MGQEPRTLPPSPNWYCARCSDAVPGGLFGFAARTSVFLVRVGPGAGESPGTPPFRVIGELVGHTERVSGFTFSHHPGQYNLCATSSDDGTVKIWDVETKTVVTEHALHQHTISTLHWSPRVKDLIVSGDEKGVVFCYWFNRNDSQHLFIEPRTIFCLTCSPHHEDLVAIGYKDGIVVIIDISKKGEVIHRLRGHDDEIHSIAWCPLPGEDCLSINQEETSEEAEITNGNAVAQAPVTKGCYLATGSKDQTIRIWSCSRGRGVMILKLPFLKRRGGGIDPTVKERLWLTLHWPSNQPTQLVSSCFGGELLQWDLTQSWRRKYTLFSASSEGQNHSRIVFNLCPLQTEDDKQLLLSTSMDRDVKCWDIATLECSWTLPSLGGFAYSLAFSSVDIGSLAIGVGDGMIRVWNTLSIKNNYDVKNFWQGVKSKVTALCWHPTKEGCLAFGTDDGKVGLYDTYSNKPPQISSTYHKKTVYTLAWGPPVPPMSLGGEGDRPSLALYSCGGEGIVLQHNPWKLSGEAFDINKLIRDTNSIKYKLPVHTEISWKADGKIMALGNEDGSIEIFQIPNLKLICTIQQHHKLVNTISWHHEHGSQPELSYLMASGSNNAVIYVHNLKTVIESSPESPVTITEPYRTLSGHTAKITSVAWSPHHDGRLVSASYDGTAQVWDALREEPLCNFRGHRGRLLCVAWSPLDPDCIYSGADDFCVHKWLTSMQDHSRPPQGKKSIELEKKRLSQPKAKPKKKKKPTLRTPVKLESIDGNEEESMKENSGPVENGVSDQEGEEQAREPELPCGLAPAVSREPVICTPVSSGFEKSKVTINNKVILLKKEPPKEKPETLIKKRKARSLLPLSTSLDHRSKEELHQDCLVLATAKHSRELNEDVSADVEERFHLGLFTDRATLYRMIDIEGKGHLENGHPELFHQLMLWKGDLKGVLQTAAERGELTDNLVAMAPAAGYHVWLWAVEAFAKQLCFQDQYVKAASHLLSIHKVYEAVELLKSNHFYREAIAIAKARLRPEDPVLKDLYLSWGTVLERDGHYAVAAKCYLGATCAYDAAKVLAKKGDAASLRTAAELAAIVGEDELSASLALRCAQELLLANNWVGAQEALQLHESLQGQRLVFCLLELLSRHLEEKQLSEGKSSSSYHTWNTGTEGPFVERVTAVWKSIFSLDTPEQYQEAFQKLQNIKYPSATNNTPAKQLLLHICHDLTLAVLSQQMASWDEAVQALLRAVVRSYDSGSFTIMQEVYSAFLPDGCDHLRDKLGDHQSPATPAFKSLEAFFLYGRLYEFWWSLSRPCPNSSVWVRAGHRTLSVEPSQQLDTASTEETDPETSQPEPNRPSELDLRLTEEGERMLSTFKELFSEKHASLQNSQRTVAEVQETLAEMIRQHQKSQLCKSTANGPDKNEPEVEAEQPLCSSQSQCKEEKNEPLSLPELTKRLTEANQRMAKFPESIKAWPFPDVLECCLVLLLIRSHFPGCLAQEMQQQAQELLQKYGNTKTYRRHCQTFCM
notes: Gemin5, human, full-length endogenous protein of HEK293 cells; also called full-length Gemin5; source: endogenous, HEK293 soluble cell extract
